The values that follow come from US12139531B2, “Compositions and methods useful in promoting milk production” (The Regents of the University of California, priority 2019, dated 2024).

In assay [1] the target is T1, ROBO2 (Homo sapiens, UniProt Q9HCK4).
T1 construct: expressed in transfected cells; host or cells: Cos7
T1 sequence (Q9HCK4 22-1378): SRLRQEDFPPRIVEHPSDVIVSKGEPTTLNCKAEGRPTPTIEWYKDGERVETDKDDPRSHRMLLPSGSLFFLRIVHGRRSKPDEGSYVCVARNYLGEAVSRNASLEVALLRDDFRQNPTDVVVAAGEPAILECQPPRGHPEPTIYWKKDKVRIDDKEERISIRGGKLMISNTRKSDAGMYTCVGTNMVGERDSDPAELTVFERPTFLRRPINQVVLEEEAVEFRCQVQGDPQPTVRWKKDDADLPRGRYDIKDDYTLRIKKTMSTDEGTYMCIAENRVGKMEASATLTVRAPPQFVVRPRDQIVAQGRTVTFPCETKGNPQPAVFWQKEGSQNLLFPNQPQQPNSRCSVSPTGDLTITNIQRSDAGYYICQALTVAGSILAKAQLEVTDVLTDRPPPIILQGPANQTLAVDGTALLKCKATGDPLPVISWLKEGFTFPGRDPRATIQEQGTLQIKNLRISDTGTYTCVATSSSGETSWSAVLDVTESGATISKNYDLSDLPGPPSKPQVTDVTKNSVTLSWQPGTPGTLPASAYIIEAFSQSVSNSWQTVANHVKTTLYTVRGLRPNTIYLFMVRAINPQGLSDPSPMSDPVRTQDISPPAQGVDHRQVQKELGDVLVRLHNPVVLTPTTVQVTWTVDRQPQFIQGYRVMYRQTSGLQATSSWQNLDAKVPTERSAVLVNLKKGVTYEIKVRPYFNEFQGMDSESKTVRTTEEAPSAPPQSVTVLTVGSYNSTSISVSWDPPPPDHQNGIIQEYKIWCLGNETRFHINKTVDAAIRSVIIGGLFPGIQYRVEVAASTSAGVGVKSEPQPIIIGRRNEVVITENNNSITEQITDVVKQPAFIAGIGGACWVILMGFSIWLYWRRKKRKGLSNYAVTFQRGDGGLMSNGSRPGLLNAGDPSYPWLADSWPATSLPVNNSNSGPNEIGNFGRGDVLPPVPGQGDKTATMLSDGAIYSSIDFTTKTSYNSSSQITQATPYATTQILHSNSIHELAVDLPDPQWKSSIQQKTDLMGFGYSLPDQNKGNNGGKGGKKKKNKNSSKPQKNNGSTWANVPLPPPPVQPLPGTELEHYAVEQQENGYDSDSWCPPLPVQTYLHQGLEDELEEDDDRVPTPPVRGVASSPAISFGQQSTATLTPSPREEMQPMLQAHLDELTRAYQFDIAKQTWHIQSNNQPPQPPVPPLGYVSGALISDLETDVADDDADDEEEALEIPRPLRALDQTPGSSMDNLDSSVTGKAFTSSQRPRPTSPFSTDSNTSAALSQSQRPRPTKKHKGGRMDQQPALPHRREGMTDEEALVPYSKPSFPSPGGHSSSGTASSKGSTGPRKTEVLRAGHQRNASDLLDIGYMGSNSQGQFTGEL
The assay can be described thus: ECD binding assay on Cos7 cells overexpressing Robo2. As to conditions: Cos7 cells overexpressing Robo2, sodium azide, 1H incubation, immunostaining. As for the experimental part:
Soluble ROBO1 ECD fragments ROBO1-Ig2 and ROBO1-Ig5 generated in the presence of heparin were used in a dome assay. […] Because treatment with heparin had only a modest positive effect on ROBO1 ECD production and a deleterious effect on their function (FIG. 6C, E), the use of heparin to generate soluble ROBO1 ECD fragments was not pursued. The ability of a ROBO1 ECD fragment to bind ROBO2 receptors was tested by overexpressing Robo2 in Cos7 cells, treating cells with sodium azide to prevent protein internalization and then incubating cells with ROBO1-Ecto-HA 1H prior to fixation and immunostaining.

Assay [2] deals with HC11 cells. In words: HC11 dome assay (milk dome formation on differentiation in DIP media). As to conditions: HC11 cells, increasing ECD concentration. Type of assay: cell-based, mouse. As for the experimental part:
To investigate ROBO1 function during alveologenesis, Robo1 gene expression was inhibited in HC11 cells (Robo1 KD). HC11 cells are a well-established, prolactin-responsive model of lactation,^19,20. Cells in which Robo1 gene expression was not inhibited are referred to as WT or Robo1+/+ herein. To measure milk production, cells were grown to confluence and then primed by treatment with epidermal growth factor (EGF, 10 ng/ml). The EGF is administered for three days in combination with charcoal-stripped fetal bovine serum, followed by one day of charcoal-stripped fetal bovine serum in the absence of EGF. These primed cells are then differentiated by treatment with dexamethasone (1 μg/ml), insulin (5 μg/ml) and prolactin (Prl, 5 μg/ml) media (DIP media) for between 3 and 5 days (FIG. 2A). Differentiation (Dif) results in the development of milk-filled domes (FIG. 2B). […] If the cells were left undifferentiated (Undif), there was little dome formation in either WT or Robo1−/− cells (FIG. 2B). Next, tissue from Robo1 knockout mice (Robo1−/−) and wild type mice (WT or Robo1+/+) mice was analyzed. Mammary glands were harvested from pregnant day 18 WT and Robo1−/− animals and alveologenesis analyzed by serially sectioning, carmine staining and then quantifying the area occupied by alveoli in sections located at top, middle and bottom portions of the tissue.
Dome number formation in response to a titration of ROBO1 ECD fragments was quantified. […] A bovine ROBO1-Ig5 construct was also tested in this assay and, as with the rat constructs, more domes were formed in response to treatment with higher concentrations of […] (FIG. 7H).
HC11 cells were grown in RPMI 1640 media (Gibco) supplemented with 10% fetal bovine serum (BioFluid Technologies), 5 μg/mL insulin (Sigma), and 10 ng/ml epidermal growth factor (EGF; Sigma). To induce differentiation in HC11 cells, confluent plates were given fresh media (RPMI 1640 media supplemented with 5% charcoal-stripped fetal bovine serum (BioFluid Technologies), 5 μg/mL insulin, and 10 ng/ml epidermal growth factor (EGF; Sigma) for 3 days followed by 24 hours of priming in priming medium (RPMI 1640 media supplemented with 5% charcoal-stripped fetal bovine serum (BioFluid Technologies), and 5 μg/mL insulin. After priming, DIP medium (RPMI 1640 media supplemented with 5% charcoal-stripped fetal bovine serum (BioFluid Technologies), 10^−6 M dexamethasone (Sigma), 5 μg/mL insulin, and 5 μg/mL prolactin (National Hormone and Peptide program) was added with fresh media every 24 hours.

B1: DCC-Ig2: extracellular domain of Deleted in Colorectal Cancer comprising two Ig domains, HA tagged, negative control (protein, listed as Rattus norvegicus)
chain: FTSLHFVSEPSDAVTMRGGNVLLNCSAESDRGVPVIKWKKDGLILALGMDDRKQQLPNGSLLIQNILHSRHHKPDEGLYQCEASLGDSGSIISRTAKVMVAGPLRFLSQTESITAFMGDTVLLKCEVIGDPMPTIHWQKNQQDLNPIPGDSRVVVLPSGALQISRLQPGDSGVYRCSARNPASTRTGNEAEVRILSDPGL
modifications: HA tag
notes: extracellular domain of Deleted in Colorectal Cancer comprising two Ig domains, HA tagged, negative control
For the molecule B1, the “binding to ROBO2” value in assay [1] is recorded as “does not bind”. Further, the “dome formation in response to a titration of ECD fragments” value in assay [2] is “not observed”.
